Source: PMC10955559

What was measured:
Test in all cases: purified protein
Conditions in all cases: 100 mM sodium acetate, pH 5.5, 37 °C, 30 min, no added calcium
purified protein [1] = substrate: OC[C@H]1O[C@@](CO)(O[C@H]2O[C@H](CO)[C@@H](O)[C@H](O)[C@H]2O)[C@@H](O)[C@@H]1O; format: biochemical, Anopheles gambiae
purified protein [2] = substrate: OC[C@H]1O[C@@](CO)(O[C@H]2O[C@H](CO)[C@@H](O)[C@H](O)[C@H]2O)[C@@H](O)[C@@H]1O; format: biochemical, Aedes aegypti
purified protein [3] = substrate: OC[C@H]1O[C@@](CO)(O[C@H]2O[C@H](CO)[C@@H](O)[C@H](O)[C@H]2O)[C@@H](O)[C@@H]1O; format: biochemical, Culex quinquefasciatus

B1: AnGluc (Anopheles gambiae) (protein)
chain: HRPLPIRKAHKFDWWERGNFYQIYPRSFKDSDGDGIGDLKGITQTIDYLKTIGIDGVWLSPIFKSPMNDFGYDISDFYAIQEEYGTMEDFEELAAKCASIGLKLILDFVPNHSSDEHEHFRLSEEGIEPYKDYYIWHSGVLDANGTRHPPSNWISVFRGSAWQWSDKRQQYYLHQFQKKQPDLNYRNPALVEEMKNVMRFWLNKGIAGFRIDALPYLFESEEVDGHYRDEPLSGQATDDPDNPAYLTHTETKDQPETYDMVHQWRQVVDEYTARDNFTRIILTEAYTAVQNMTRFYGTPAAPGAQIPFNFQLITLLTVNSTGRDFVNAVQSWTRAMPSGAIANWVLGNHDNSRIASRLGVARADLYNIALQTLPGIAVTYYGEEIAMVDQWISWNDTIDPAACNADPATYELYSRDPVRTPFQWSNGTNAGFSNASRTWLPVADGYRELNVAAQLAAPRSHLKTFMQLTAYRKRRLLAEGNFVLRTVGRDLVMYKRSVPGVGYVVVALNFGPEPATLPVASQFPGTGEHWLKVIASSLQAQPQAGTWINTRLYKLAPDSGIVLERLTGRNDLMT
Km (purified protein [1]): 20.4 ± 7.4 mM
Vmax (purified protein [1]): 740 µM/min
kcat (purified protein [1]): 815 ± 60 s⁻¹
kcat/Km (purified protein [1]): 40000 ± 2920 M⁻¹ s⁻¹

B2: AeGluc (Aedes aegypti) (protein)
chain: LDWWEHGNFYQVYPRSFKDSDGDGIGDLDGVTEKLKYLKDIGMDGVWLSPIFSSPMADFGYDISNFREIQTEYGDLDAFQRLSDKCKQLGLHLILDFVPNHTSDQHEYFKKSVQKDETYKDFYVWHPGVHGPNNTKVPPSNWISVFRGSSWEWNEERQEFYLHQFLKEQPDLNYRNPAVVEEMKNVLRYWLDRGVSGFRIDAVPYLFESDIIDGRYRNEPESRTTDDPENPAYLVHTQTMDQPETYDMIYQWRAVLDEYSKTDNRTRIMMTEGYTSLPKIIEFFGNATANGAQIPFNFEVISNVKKNSTGADFATYVKRWLDAKPANRRSNWVLGNHDNNRLGSRLGENKIDLYNIALQTLPDIAVTYYGEEIGMLDQWIPWNETVDPAACRSDEASYSAYSRDPARTPMQWDSGKNAGFSKAAKTWLPVADNYKTLNVKIQDRARKSHLKIFKKLTKYRKRQILTEGDIDIKVSGENLLVYKRKVDKVGYVVVALNFGTEPVALGLSSLFDRADQRMQVVVSSNRVSTPDNVWVDVDNYVLIGESGIVLQYLWGKNPIVS
Km (purified protein [2]): 47.6 ± 16.3 mM
Vmax (purified protein [2]): 740 µM/min
kcat (purified protein [2]): 805 ± 66.7 s⁻¹
kcat/Km (purified protein [2]): 16900 ± 1380 M⁻¹ s⁻¹

B3: CxGluc (Culex quinquefasciatus) (protein)
chain: LQWWEHGNFYQVYPRSFKDSDGNGIGDLDGVTEKLQYLKDVGMDGIWLSPIFASPMADFGYDISDFYNIQGEYGDLAAFERLSAKCKELGLRLILDFVPNHTSNQHEYFKKSVQKEDPYTNYYVWHPGVTNEDGTKSPPSNWISVFRGSAWEWNEDRQEYYLHQFLKEQPDLNYRDPALVEEMKNVLKFWLNKGVSGFRIDAVPYLFESVEVENRYVDEPLSRATDDAENPAYLIHNQTMDQPETYDMIYQWRAVLDEFTAKDNQTRIMMTEGYTSIPNVMKFFGEGEQNGAQIPFNFQMISNLRKTSTAADFARYANLWLDNLPAGRRSNWVLGNHDNNRIGSRLGEAKIDLYNIALQTLPDIAVTYYGEEIGMVDQPIPFNETVDPAGLRAGPDDYTLYSRDPARTPMQWNSDKNAGFSSADKTWLPVATNYKQLNVKAQDAAQKSHLKLFKRLTTYRKRQILTHGDLDLRTTDSNLVLYKRKVDKVGYVVVVLNFSDEPQSLAAIKQQFPGADDRLQVVASSKLVTIKDNKWINVADTELPGESAIVLQKLWGPNPVVVYEA
Km (purified protein [3]): 40.1 ± 15.1 mM
Vmax (purified protein [3]): 690 µM/min
kcat (purified protein [3]): 750 ± 75 s⁻¹
kcat/Km (purified protein [3]): 18700 ± 1850 M⁻¹ s⁻¹
